± gives the uncertainty stated by the source.
Test: self-splicing fitness, log relative to wild type (ln ratio); higher = more splicing; Tetrahymena group I intron in knt gene, E. coli kanamycin selection, DiMSum; sequences stand for … in CUCUCU…GGAGGGAAAAGUUAUCAGGCAUGCACCUGGUAGCUAGUCUUUAAACCAAUAGAUUGCAUCGGUUUAAAAGGCAAGACCGUCAAAUUGCGGGAAAGGGGUCAACAGCCGUUCAGUACCAAGUCUCAGGGGAAACUUUGAGAUGGCCUUGCAAAGGGUAUGGUAAUAAGCUGACGGACAUGGUCCUAACCACGCAGCCAAGUCCUAAGUCAACAGAUCUUCUGUUGAUAUGGAUGCAGUUCACAGACUAAAUGUCGGUCGGGGAAGAUGUAUUCUUCUCAUAAGAUAUAGUCGGACCUCUCCUUAAUGGGAGCUAGCGGAUGAAGUGAUGCAACACUGGAGCCGCUGGGAACUAAUUUGUAUGCGAAAGUAUAUUGAUUAGUUUUGGAGUACUCGUGGUCG
Procedure, shortened: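 Colonies from six replicate transformations of E. coli BL21(DE3) were pooled and amplicon-sequenced on an Illumina HiSeq 2500. The library placed an intron with all eight P1ex-region nucleotides randomised inside the knt kanamycin-resistance gene on pET-22b(+), and cells grew overnight at 37°C or 30°C on LB agar with or without 25 μg/mL kanamycin (plus 100 μg/mL carbenicillin, 50 μM IPTG, 0.2% rhamnose). Fitness is the DiMSum error-weighted combination of wild-type-normalised replicate fold changes, kanamycin versus none.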

| Sequence | self-splicing fitness (ln) (30 °C) | self-splicing fitness (ln) (37 °C) |
| --- | --- | --- |
| UCGAAGCAAUAUUACGUUUA | -3.07 ± 0.45 | -0.87 ± 0.29 |
| UCCUAGCAAUAUUACGCGUG | -4.1 ± 0.15 | -2.75 ± 0.12 |
| UUCCAGCAAUAUUACGCGAG | -0.566 ± 0.082 | -0.29 ± 0.082 |
| CCUGAGCAAUAUUACGGGGC | -3.49 ± 0.28 | – |
| ACCCAGCAAUAUUACGUCCG | -3.83 ± 0.22 | -0.701 ± 0.14 |
| CGGGAGCAAUAUUACGUUCA | -3.69 ± 0.25 | -2.53 ± 0.26 |
| CCUAAGCAAUAUUACGCAGU | -3.23 ± 0.19 | -1.76 ± 0.19 |
| CAAAAGCAAUAUUACGAGAU | -3.7 ± 0.2 | -2.21 ± 0.16 |
| ACCUAGCAAUAUUACGCAUG | -2.27 ± 0.15 | -1.42 ± 0.14 |
| CUUCAGCAAUAUUACGUAAC | -2.65 ± 0.32 | -2.27 ± 0.45 |
| ACGUAGCAAUAUUACGUAAC | -3.5 ± 0.37 | -2.46 ± 0.48 |
| UAGGAGCAAUAUUACGGAGG | -4.35 ± 0.42 | -2.73 ± 0.32 |
| GCGGAGCAAUAUUACGGACU | -3.06 ± 0.35 | -0.993 ± 0.19 |
| UCACAGCAAUAUUACGUAUU | -3.5 ± 0.15 | -2.54 ± 0.14 |
| UGUUAGCAAUAUUACGACGG | -0.352 ± 0.16 | -0.218 ± 0.18 |
| UUGGAGCAAUAUUACGUGAG | -1.84 ± 0.13 | -1.54 ± 0.2 |
| GUACAGCAAUAUUACGAGUU | -1.7 ± 0.094 | -1.36 ± 0.12 |
| GUGCAGCAAUAUUACGUGCU | -3.49 ± 0.32 | -2.35 ± 0.35 |
| CACCAGCAAUAUUACGCUGG | -5.21 ± 0.25 | -2.41 ± 0.16 |
| GGAUAGCAAUAUUACGAUUU | 0.317 ± 0.072 | 0.459 ± 0.09 |
| UCGAAGCAAUAUUACGGGCC | -2.98 ± 0.38 | -0.79 ± 0.33 |
| GUUGAGCAAUAUUACGGGCU | -2.65 ± 0.26 | -2.23 ± 0.49 |
| AAAUAGCAAUAUUACGUUGC | -2.63 ± 0.23 | -2.98 ± 0.3 |
| CGCUAGCAAUAUUACGAUCG | -1.17 ± 0.12 | -0.644 ± 0.14 |
| GCGCAGCAAUAUUACGGGAC | -2.13 ± 0.097 | 0.393 ± 0.096 |

| Sequence | self-splicing fitness (ln) (30 °C) | self-splicing fitness (ln) (37 °C) |
| --- | --- | --- |
| GAGCAGCAAUAUUACGAACG | -2.53 ± 0.18 | -0.673 ± 0.16 |
| UUUUAGCAAUAUUACGUCCG | -2.37 ± 0.34 | 0.963 ± 0.33 |
| AGAAAGCAAUAUUACGGAUA | -2.15 ± 0.15 | -1.77 ± 0.15 |
| UCUUAGCAAUAUUACGGGUC | -3.28 ± 0.32 | -2.68 ± 0.41 |
| AUUUAGCAAUAUUACGCCCC | -0.747 ± 0.37 | – |
| UUGCAGCAAUAUUACGACAU | -0.522 ± 0.012 | 0.00633 ± 0.032 |
| GAUUAGCAAUAUUACGUAAU | -3.06 ± 0.18 | -0.741 ± 0.12 |
| CGCUAGCAAUAUUACGACGU | -1.86 ± 0.1 | -0.355 ± 0.12 |
| GACUAGCAAUAUUACGAACU | 0.186 ± 0.15 | 1.04 ± 0.22 |
| CUCUAGCAAUAUUACGGGGG | -3.07 ± 0.3 | -2.38 ± 0.26 |
| ACUAAGCAAUAUUACGCAUG | -2.31 ± 0.091 | -0.766 ± 0.091 |
| CCAUAGCAAUAUUACGAUCG | -0.244 ± 0.053 | 0.361 ± 0.081 |
| GUCAAGCAAUAUUACGUAAU | -0.836 ± 0.044 | -0.385 ± 0.061 |
| UCUAAGCAAUAUUACGCUUG | – | -2.59 ± 0.41 |
| CAAAAGCAAUAUUACGGACA | -2.21 ± 0.15 | -1.64 ± 0.17 |
| GCUCAGCAAUAUUACGGUGG | -2.89 ± 0.17 | -1.41 ± 0.11 |
| AAAUAGCAAUAUUACGUGGA | -3.16 ± 0.13 | -2.11 ± 0.099 |
| AACAAGCAAUAUUACGACCC | -0.136 ± 0.22 | 0.116 ± 0.24 |
| AAUAAGCAAUAUUACGUAAC | – | -1.85 ± 0.25 |
| UCCCAGCAAUAUUACGUUGU | -4.06 ± 0.15 | -1.97 ± 0.11 |
| UCAAAGCAAUAUUACGGAUC | -3.94 ± 0.41 | -3.23 ± 0.4 |
| GAUUAGCAAUAUUACGCUGA | -3.17 ± 0.23 | -2.53 ± 0.27 |
| GAGUAGCAAUAUUACGCACG | -1.77 ± 0.21 | – |
| UGGCAGCAAUAUUACGCCGA | -0.136 ± 0.092 | 0.134 ± 0.1 |
